From US20250339531A1 (FRED HUTCHINSON CANCER CENTER, published 2025) come the findings set out here.

Experiment [1] deals with T1, Proteasome subunit alpha type (Homo sapiens).
T1 construct: also called PSMA6
Description: anti-FLAG co-IP LC-MS, exp 3, +IFNg +Dox.

Experiment [2] has as its target T2, Heterogeneous nuclear ribonucleoprotein U (Homo sapiens, UniProt Q00839 2-825).
T2 construct: also called HNRNPU; HNRPU
As to the kind of experiment: anti-FLAG co-IP LC-MS, exp 3, +IFNg +Dox.

Experiment [3] addresses T3, cDNA FLJ56329, highly similar to Myosin light polypeptide 6 (Homo sapiens).
T3 construct: also called MYL6
Description: anti-FLAG co-IP LC-MS, exp 3, +IFNg +Dox.

The target of experiment [4] is T4, Cyclin-dependent kinase 4 (Homo sapiens, UniProt P11802 2-303).
T4 construct: also called CDK4
Description: anti-FLAG co-IP LC-MS, exp 3, +IFNg +Dox.

For experiment [5], the target named is T5, DNA-dependent protein kinase catalytic subunit (Homo sapiens, UniProt P78527 1-4128).
T5 construct: also called PRKDC
T5 sequence (P78527 whole entry): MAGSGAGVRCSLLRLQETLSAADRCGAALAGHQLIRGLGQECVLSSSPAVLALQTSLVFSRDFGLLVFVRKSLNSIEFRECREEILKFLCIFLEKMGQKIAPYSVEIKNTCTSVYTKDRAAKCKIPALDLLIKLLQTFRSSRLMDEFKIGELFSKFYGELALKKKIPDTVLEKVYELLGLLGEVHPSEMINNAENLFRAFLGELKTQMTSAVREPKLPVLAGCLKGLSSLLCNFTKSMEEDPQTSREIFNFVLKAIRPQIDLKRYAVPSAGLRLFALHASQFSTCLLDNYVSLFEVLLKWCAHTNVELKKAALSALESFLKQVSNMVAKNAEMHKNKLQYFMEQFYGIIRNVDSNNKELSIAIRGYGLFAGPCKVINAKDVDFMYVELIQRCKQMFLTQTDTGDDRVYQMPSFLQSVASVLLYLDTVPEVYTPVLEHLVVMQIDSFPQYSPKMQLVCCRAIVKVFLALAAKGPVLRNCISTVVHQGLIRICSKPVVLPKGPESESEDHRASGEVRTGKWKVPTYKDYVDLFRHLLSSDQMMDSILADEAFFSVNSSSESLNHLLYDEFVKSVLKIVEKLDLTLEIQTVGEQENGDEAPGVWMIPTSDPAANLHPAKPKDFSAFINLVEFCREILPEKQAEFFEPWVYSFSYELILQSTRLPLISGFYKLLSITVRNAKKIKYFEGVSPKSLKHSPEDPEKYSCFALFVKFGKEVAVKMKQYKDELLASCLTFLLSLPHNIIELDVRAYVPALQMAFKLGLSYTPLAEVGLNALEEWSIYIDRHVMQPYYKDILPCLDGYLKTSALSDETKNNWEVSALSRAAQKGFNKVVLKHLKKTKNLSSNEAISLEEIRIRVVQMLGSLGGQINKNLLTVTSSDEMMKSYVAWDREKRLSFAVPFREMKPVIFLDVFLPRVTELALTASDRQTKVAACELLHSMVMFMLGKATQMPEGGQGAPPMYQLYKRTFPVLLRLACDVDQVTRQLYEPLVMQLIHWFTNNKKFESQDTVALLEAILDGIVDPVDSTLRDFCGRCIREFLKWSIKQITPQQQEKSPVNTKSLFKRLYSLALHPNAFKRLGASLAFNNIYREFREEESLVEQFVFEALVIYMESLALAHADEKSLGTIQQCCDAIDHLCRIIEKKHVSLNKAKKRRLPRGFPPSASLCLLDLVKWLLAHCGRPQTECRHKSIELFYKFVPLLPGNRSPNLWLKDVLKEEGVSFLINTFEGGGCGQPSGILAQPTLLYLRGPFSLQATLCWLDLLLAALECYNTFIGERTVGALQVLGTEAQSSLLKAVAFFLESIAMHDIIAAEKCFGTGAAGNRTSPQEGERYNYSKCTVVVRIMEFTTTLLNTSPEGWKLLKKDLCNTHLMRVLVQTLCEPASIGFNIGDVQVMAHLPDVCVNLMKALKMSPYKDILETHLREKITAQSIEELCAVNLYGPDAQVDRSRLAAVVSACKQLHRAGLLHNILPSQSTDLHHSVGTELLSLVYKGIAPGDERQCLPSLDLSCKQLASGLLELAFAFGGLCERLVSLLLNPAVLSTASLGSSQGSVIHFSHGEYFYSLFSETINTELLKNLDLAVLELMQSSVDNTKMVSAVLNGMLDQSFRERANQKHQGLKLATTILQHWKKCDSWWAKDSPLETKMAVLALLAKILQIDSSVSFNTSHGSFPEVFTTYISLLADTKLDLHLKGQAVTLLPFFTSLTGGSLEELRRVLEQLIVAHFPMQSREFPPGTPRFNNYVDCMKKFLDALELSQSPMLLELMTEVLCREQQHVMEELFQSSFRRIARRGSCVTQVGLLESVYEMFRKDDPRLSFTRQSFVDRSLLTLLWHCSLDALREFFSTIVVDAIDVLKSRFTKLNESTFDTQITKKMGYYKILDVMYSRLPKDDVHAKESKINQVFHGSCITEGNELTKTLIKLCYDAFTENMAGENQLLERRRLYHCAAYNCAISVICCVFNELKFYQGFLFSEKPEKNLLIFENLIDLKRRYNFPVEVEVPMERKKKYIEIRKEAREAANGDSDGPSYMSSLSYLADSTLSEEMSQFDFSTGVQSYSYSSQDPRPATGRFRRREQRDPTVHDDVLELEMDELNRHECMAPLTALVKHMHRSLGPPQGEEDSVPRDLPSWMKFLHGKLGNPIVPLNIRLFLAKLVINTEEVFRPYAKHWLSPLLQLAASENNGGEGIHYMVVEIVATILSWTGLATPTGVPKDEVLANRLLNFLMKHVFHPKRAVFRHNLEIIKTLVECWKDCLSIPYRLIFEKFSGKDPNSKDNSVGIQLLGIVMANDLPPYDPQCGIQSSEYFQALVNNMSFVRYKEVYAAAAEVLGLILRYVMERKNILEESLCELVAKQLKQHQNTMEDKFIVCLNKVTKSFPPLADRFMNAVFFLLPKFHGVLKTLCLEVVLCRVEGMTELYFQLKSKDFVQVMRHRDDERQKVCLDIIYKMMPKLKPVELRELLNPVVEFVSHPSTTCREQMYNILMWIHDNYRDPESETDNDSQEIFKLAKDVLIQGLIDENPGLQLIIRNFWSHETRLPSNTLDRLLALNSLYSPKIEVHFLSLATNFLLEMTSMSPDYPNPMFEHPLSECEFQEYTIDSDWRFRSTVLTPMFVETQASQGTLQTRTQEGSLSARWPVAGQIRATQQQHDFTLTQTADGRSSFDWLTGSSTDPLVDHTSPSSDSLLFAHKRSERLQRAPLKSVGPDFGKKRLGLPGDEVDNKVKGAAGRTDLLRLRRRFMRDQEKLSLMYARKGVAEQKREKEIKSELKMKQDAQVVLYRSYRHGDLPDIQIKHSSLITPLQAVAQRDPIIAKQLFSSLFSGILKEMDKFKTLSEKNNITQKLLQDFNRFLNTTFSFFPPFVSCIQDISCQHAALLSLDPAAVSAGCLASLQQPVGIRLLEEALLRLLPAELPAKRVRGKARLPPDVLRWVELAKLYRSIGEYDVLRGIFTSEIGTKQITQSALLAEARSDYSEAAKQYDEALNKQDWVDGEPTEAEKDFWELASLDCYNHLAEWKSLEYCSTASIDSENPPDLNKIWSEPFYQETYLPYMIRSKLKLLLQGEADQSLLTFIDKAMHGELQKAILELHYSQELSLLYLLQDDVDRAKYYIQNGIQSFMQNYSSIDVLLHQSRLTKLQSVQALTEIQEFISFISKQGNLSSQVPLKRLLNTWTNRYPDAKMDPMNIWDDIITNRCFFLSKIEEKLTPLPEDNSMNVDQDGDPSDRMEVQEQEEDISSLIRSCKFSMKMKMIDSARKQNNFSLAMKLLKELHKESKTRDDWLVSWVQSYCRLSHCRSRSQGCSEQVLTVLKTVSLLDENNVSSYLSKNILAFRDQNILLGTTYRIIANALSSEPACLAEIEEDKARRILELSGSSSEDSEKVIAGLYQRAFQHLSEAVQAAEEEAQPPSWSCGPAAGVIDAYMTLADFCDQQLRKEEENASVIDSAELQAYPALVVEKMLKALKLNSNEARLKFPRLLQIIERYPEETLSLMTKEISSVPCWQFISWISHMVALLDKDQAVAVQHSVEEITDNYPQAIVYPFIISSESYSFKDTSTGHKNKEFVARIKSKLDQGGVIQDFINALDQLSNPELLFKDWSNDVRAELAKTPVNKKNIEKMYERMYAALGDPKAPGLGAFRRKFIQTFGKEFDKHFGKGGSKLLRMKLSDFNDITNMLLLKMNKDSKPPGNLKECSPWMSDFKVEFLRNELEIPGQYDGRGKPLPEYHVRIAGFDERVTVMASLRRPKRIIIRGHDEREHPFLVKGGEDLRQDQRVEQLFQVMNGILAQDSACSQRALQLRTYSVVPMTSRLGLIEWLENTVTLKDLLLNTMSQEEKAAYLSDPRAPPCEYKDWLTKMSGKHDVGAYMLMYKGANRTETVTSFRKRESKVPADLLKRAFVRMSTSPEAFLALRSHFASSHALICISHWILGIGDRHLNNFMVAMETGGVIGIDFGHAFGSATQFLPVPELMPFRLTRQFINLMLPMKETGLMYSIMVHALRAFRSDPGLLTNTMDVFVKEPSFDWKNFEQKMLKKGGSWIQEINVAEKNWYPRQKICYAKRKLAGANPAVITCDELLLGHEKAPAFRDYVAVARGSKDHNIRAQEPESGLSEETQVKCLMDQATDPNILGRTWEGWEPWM
Description: anti-FLAG co-IP LC-MS, exp 3, +IFNg +Dox.

The next experiment has as its target T6, Nucleolin (Homo sapiens, UniProt P19338 2-710).
T6 construct: also called NCL
Description: anti-FLAG co-IP LC-MS, exp 3, +IFNg +Dox.

The target of experiment [6] is T7, Heterogeneous nuclear ribonucleoprotein M (Homo sapiens, UniProt P52272 2-730).
T7 construct: also called HNRNPM
T7 sequence (looked up): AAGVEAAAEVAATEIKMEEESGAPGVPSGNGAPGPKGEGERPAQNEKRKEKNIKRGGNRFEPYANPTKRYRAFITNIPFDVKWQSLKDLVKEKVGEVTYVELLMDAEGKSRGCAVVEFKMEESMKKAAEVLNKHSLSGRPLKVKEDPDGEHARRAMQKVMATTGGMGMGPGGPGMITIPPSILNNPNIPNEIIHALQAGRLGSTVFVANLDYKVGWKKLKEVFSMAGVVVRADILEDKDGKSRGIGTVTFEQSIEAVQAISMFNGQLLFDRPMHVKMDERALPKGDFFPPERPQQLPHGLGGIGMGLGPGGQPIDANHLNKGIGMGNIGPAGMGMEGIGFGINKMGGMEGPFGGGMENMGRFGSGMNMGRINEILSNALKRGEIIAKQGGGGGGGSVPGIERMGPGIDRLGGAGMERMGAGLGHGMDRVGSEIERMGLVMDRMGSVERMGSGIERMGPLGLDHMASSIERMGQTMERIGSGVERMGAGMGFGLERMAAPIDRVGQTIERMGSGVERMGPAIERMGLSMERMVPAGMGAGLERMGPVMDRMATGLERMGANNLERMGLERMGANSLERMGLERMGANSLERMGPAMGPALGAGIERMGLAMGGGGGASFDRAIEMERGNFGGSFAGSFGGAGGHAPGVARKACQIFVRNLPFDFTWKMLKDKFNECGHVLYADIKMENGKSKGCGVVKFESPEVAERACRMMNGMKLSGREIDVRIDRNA
Description: anti-FLAG co-IP LC-MS, exp 3, +IFNg +Dox.

Experiment [7] addresses T8, Signal transducer and activator of transcription 1-alpha/beta (Homo sapiens, UniProt P42224 2-750).
T8 construct: also called STAT1
T8 sequence (looked up): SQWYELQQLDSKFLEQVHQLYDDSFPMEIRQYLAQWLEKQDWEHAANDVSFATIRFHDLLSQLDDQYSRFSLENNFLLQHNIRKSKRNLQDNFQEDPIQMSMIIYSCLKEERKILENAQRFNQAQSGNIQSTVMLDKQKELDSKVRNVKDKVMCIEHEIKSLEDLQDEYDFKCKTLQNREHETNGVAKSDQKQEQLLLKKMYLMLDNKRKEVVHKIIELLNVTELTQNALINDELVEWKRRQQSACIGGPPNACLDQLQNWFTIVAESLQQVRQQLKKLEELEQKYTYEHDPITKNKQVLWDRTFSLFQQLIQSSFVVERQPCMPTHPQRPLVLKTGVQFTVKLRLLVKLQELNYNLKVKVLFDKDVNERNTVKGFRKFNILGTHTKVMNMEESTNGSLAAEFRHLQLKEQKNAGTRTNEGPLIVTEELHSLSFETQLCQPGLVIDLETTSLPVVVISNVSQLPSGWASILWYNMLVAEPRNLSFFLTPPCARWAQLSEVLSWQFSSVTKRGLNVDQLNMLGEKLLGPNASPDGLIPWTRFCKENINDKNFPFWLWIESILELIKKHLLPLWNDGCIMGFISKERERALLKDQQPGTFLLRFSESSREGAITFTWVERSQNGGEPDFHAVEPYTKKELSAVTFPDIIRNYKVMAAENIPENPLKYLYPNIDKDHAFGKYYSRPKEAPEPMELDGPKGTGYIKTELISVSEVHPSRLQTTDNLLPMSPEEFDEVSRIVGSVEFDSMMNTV
As to the kind of experiment: anti-FLAG co-IP LC-MS, exp 3, +IFNg +Dox.

Experiment [8] concerns the target T9, 3×MYC-STAT1-S727E phosphorylated at Y701 with JAK1 kinase (UniProt P42224 1-750, phosphorylated at Y701 with JAK1 kinase).
T9 construct: In vitro translated in rabbit reticulocyte lysate; not shown: 3×MYC tag
T9 sequence (looked up): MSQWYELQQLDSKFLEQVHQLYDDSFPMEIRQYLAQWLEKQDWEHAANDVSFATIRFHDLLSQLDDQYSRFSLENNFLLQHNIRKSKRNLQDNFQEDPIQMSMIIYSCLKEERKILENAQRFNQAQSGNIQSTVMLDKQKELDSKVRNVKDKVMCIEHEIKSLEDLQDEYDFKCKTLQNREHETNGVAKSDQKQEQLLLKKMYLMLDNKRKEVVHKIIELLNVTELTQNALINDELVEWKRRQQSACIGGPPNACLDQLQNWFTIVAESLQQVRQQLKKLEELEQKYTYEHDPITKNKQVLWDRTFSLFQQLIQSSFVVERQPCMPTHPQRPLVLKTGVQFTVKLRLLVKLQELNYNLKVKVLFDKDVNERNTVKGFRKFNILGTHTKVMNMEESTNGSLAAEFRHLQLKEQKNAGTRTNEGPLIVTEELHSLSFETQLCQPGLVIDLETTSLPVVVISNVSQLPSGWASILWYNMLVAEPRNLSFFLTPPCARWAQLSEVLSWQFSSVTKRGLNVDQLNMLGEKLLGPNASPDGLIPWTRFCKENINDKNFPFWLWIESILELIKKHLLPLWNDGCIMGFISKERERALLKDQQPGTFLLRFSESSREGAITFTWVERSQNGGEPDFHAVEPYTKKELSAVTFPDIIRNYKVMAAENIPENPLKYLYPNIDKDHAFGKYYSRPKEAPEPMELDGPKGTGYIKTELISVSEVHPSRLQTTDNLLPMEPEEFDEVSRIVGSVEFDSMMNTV
Description: anti-FLAG IP of in vitro translated proteins, with JAK1 treatment, western.

T2 sequence (Q00839 2-825 limits assumed): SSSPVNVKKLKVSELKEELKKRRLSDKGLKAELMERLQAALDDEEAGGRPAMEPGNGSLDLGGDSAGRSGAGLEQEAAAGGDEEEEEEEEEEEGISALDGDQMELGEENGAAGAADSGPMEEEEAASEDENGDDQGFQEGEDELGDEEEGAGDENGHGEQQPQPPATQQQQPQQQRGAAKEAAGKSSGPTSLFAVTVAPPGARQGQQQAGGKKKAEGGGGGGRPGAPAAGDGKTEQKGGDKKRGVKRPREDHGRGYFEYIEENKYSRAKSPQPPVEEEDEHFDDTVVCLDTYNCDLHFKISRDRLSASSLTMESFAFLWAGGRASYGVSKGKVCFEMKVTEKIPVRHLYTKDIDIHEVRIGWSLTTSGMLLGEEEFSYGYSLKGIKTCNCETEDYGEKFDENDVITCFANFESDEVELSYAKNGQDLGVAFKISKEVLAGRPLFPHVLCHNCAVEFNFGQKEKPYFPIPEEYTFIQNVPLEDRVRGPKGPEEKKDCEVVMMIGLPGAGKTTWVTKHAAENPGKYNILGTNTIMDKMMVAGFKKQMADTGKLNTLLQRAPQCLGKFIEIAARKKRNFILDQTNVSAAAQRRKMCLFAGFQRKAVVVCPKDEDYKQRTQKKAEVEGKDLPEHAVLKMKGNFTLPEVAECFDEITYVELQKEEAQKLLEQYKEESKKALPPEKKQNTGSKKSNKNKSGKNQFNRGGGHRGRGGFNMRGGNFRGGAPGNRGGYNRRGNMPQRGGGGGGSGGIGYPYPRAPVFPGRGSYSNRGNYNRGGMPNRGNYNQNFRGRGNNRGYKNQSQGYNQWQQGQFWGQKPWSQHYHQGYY

B1: i3XFLAG-NLS-CTDaa154-424 (other)
chain: MDYKDHDGDYKDHDIDYKDDDDKPPKRMRREPKKKRKVGRAPAQAGGLCSAAPGGGHPAPSWVAFAHTGAWGTGLPAPHVPCAPGALPQGAFVSQAARAAPALQPSQAAPAEGISQPAPARGDFAYAAPAPPDGALSHPQAPRWPPHPGKSREDRDPQRDGLPGPCAVAQPGPAQAGPQGQGVLAPPTSQGSPWWGWGRGPQVAGAAWEPQAGAAPPPQPAPPDASASARQGQMQGIPAPSQALQEPAPWSALPCGLLLDELLASPEFLQQAQPLLETEAPGELEASEEAASLEAPLSEEEYRALLEEL
notes: Doxycycline-induced in MB135 cells for co-IP; also called longCTD; iDUX4-CTD
B1: the PSMs in experiment [1] was 1 PSMs; in [2], 9 PSMs; in experiment [3], 4 PSMs; in [4], 1 PSMs; in experiment [5], 18 PSMs; with Nucleolin, 4 PSMs. The PSMs in [6] was 21 PSMs; in experiment [7], 3 PSMs. The binding result in experiment [8] was “no binding”.
